Data on nine substances can be found in PMC4931022, “Arginine demethylation is catalysed by a subset of JmjC histone lysine demethylases” (Nature Communications, 2016).

The term kcat denotes the maximal rate divided by the concentration of active sites. As a reminder, the Km is the concentration of substrate that gives half-maximal velocity. In general, kcat/KM refers to the turnover number divided by the Michaelis constant.

Type in all cases: biochemical
In assay [1] the target is T1, KDM3A (Homo sapiens, UniProt Q9Y4C1).
T1 construct: KDM3A515–1,317; His6 (N); made in house; host or cells: Sf9 cells
T1 sequence (Q9Y4C1 515-1317 limits assumed): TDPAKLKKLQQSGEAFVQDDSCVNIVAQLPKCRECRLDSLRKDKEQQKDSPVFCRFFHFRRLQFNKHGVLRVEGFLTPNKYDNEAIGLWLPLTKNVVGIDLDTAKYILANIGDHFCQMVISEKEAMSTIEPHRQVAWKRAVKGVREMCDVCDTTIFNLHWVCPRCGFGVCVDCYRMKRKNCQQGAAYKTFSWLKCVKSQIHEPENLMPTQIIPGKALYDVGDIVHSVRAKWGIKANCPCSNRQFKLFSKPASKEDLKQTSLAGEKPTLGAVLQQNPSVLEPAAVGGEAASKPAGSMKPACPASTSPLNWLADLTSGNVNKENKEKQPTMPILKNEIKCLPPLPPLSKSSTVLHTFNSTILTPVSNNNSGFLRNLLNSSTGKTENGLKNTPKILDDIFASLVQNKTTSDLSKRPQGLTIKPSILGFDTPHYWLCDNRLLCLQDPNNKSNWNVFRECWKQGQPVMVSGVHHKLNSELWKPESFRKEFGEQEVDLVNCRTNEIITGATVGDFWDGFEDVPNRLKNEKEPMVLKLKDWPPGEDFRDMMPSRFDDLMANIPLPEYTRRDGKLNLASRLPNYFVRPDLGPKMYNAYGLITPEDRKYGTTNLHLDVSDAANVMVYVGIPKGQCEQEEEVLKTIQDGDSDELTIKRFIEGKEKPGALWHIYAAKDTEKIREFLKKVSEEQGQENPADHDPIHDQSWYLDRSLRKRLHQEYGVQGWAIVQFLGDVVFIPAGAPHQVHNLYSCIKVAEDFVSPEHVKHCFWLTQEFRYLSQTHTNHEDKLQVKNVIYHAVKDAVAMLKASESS
The assay is described as follows: Formaldehyde dehydrogenase-coupled demethylation assay, KDM3A. Particulars: for kcat / Km: KDM3A catalytic domain, apparent, preliminary, 37 °C, mean±s.e.m., n=3; for kcat: FDH/NAD+-coupled assay; for Km: FDH/NAD+-coupled formaldehyde assay, 2OG 200 μM, Fe(II) 10 μM, ascorbate 100 μM, fluorescence 355/460 nm; for kcat/KM: KDM3A, calculated from the average kcat and KM values, μM^−1 s^−1 for this quantity. The method, then: (§1) Formaldehyde dehydrogenase-coupled assays. Preliminary kinetic parameters were determined by detection of the formaldehyde by-product of the demethylation reaction using a FDH (formaldehyde dehydrogenase-coupled)/NAD^+-coupled assay as previously described. Assays were carried out in buffer (enzyme-dependent) with the addition of Fe(II) ammonium sulfate (10 μM), sodium ascorbate (100 μM), 2OG (200 μM), NAD^+ (500 μM), enzyme (0.2–4 μM) and FDH enzyme (0.025 U per assay, Sigma-Aldrich; total volume 30 μl) and were conducted at 37 °C in clear-bottom black 384-well plates. […] The Km and Vmax values were calculated from the reaction rate during the linear phase of formaldehyde production, as determined by the slope of the fluorescence signal recorded.

Assay [2] addresses T2, KDM4E (Homo sapiens, UniProt B2RXH2).
T2 construct: His6 (N); made in house; host or cells: Escherichia coli
T2 sequence (B2RXH2 1-337): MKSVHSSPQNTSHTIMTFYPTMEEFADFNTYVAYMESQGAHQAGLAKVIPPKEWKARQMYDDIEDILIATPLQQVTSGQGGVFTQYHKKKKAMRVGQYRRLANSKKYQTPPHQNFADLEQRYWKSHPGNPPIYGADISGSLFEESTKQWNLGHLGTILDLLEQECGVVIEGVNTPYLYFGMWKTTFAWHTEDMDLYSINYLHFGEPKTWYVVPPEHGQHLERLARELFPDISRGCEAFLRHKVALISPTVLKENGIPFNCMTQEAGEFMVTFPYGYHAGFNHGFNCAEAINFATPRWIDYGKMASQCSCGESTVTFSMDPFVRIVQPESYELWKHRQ
The assay is described as follows: Formaldehyde dehydrogenase-coupled demethylation assay, KDM4E. Conditions: for Km: FDH/NAD+-coupled formaldehyde assay, 2OG 200 μM, Fe(II) 10 μM, ascorbate 100 μM. The protocol:
as §1

The target of a further assay is T3, KDM6B (Homo sapiens, UniProt O15054).
T3 construct: His6 (N); made in house; host or cells: Escherichia coli
Briefly: MALDI MS activity assay, recombinant KDM6B catalytic domain. Conditions: KDM6B 2 μM, peptide 10 μM, 1 h, 37 °C, 2OG 100 μM, ascorbate 100 μM, Fe(II) 10 μM, 50 mM HEPES pH 7.5, 150 mM NaCl; MALDI-TOF MS, −14 Da shift. The protocol:
(§2) MALDI MS activity assays. Recombinant proteins (2 μM) were incubated with peptides (10 μM, sequences are given in Supplementary Table 1) and cofactors/substrates for 1 h at 37 °C, unless otherwise specified. Reactions were quenched with 1:1 (v/v) methanol and analysed with MALDI MS. Assay conditions for each enzyme are given in Supplementary Table 2. Negative controls without enzyme were included.
(§3) Supplementary Table 2 Assay conditions with truncated recombinant protein.
(§4) Supplementary Table 3 Assay conditions with full length Flag-tagged KDMs.

The target of assay [3] is T1, KDM3A. Briefly: MALDI MS activity assay, recombinant KDM3A catalytic domain. Particulars: KDM3A 2 μM, peptide 10 μM, 1 h, 37 °C, 2OG 100 μM, ascorbate 100 μM, Fe(II) 50 μM, 50 mM HEPES pH 7.5; MALDI-TOF MS, −14 Da shift. The method, then: as §2, §3, §4
Assay [4] deals with T4, KDM5C (Homo sapiens, UniProt P41229).
T4 construct: KDM5C1–765 was produced as an N-terminally His6-tagged protein in Sf9 cells; His6 (N); made in house; host or cells: Sf9 cells (provided by the Structural Genomics Consortium)
T4 sequence (P41229 1-765): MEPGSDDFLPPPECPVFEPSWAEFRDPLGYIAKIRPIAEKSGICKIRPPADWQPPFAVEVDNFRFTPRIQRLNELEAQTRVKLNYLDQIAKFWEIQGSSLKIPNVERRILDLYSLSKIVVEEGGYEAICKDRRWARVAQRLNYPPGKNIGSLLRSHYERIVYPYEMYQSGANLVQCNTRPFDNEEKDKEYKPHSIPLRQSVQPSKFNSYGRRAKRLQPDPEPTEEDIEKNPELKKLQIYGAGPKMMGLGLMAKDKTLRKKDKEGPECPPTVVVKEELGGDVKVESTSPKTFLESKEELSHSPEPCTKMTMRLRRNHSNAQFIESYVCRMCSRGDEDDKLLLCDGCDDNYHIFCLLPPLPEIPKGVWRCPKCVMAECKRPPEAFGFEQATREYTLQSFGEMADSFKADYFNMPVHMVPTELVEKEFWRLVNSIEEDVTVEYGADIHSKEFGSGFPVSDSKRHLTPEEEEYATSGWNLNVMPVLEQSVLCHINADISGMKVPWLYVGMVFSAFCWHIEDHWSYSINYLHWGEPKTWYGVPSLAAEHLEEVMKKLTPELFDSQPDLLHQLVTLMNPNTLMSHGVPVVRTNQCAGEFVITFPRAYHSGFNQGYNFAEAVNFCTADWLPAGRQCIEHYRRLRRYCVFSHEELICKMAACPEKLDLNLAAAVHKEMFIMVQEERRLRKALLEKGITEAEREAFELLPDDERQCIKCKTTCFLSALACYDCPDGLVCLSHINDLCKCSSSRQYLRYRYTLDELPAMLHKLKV
Briefly: MALDI MS activity assay, recombinant KDM5C catalytic domain. Conditions: peptide 10 μM, 1 h, 37 °C, MALDI-TOF MS; for demethylation, in words: KDM5C catalytic domain 2 μM. The method, then: as §2
(§5) Supplementary Table 2 Assay conditions with truncated recombinant protein. […]

Assay [5] addresses T2, KDM4E. The assay is described as follows: MALDI MS activity assay, recombinant KDM4E catalytic domain. Conditions: peptide 10 μM, 1 h, 37 °C, MALDI-TOF MS; for demethylation, in words: KDM4E catalytic domain 2 μM. The method, then: as §2, §5
Assay [6] deals with T4, KDM5C. Briefly: Formaldehyde dehydrogenase-coupled demethylation assay, KDM5C. Particulars: for kcat / Km: KDM5C catalytic domain, apparent, preliminary, 37 °C, mean±s.e.m., n=3; for kcat: FDH/NAD+-coupled assay; for Km: FDH/NAD+-coupled formaldehyde assay, 2OG 200 μM, Fe(II) 10 μM, ascorbate 100 μM; for kcat/KM: KDM5C, calculated from the average kcat and KM values, μM^−1 s^−1 for this quantity. The protocol:
as §1

[7] abbreviates: KDM4E catalytic domain, apparent, preliminary, FDH/NAD+-coupled assay, 37 °C, mean±s.e.m., n=3.
[8] abbreviates: KDM4E catalytic domain, apparent, preliminary, 37 °C, mean±s.e.m., n=3.
Where [9] appears, read: KDM4E, calculated from the average kcat and KM values, μM^−1 s^−1 for this quantity.

T3 sequence (O15054 1141-1590 limits assumed): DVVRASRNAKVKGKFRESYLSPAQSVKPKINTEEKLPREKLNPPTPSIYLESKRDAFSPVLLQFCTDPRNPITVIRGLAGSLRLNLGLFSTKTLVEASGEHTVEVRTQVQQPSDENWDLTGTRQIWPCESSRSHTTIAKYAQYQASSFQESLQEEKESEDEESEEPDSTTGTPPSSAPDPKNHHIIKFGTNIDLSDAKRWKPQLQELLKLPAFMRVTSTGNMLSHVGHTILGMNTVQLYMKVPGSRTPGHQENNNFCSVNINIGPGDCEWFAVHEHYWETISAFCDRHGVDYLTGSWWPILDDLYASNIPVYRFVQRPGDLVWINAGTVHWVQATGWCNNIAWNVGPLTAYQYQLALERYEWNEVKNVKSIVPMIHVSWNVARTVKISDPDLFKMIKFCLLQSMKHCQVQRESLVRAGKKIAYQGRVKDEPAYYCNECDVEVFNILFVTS

With “ARTKQTAR-Rme2s-STGGKA (ARTKQTARRSTGGKA; symmetric dimethylarginine at 9; C-terminal amide) [H3(1-15)K9Rme2s, histone H3 fragment with symmetric dimethylarginine replacing methylated K9]”, the kcat with KDM3A [1] was 3.0±0.3 × 10^−3 s^−1; with KDM4E [2] (setting [7]) it was 8.7±0.3 × 10^−3 s^−1. Besides, the Km amounted to 23.7 ± 1.9 µM with KDM3A [1] and 101 ± 11 µM with KDM4E [2] (setting [8]). The figures for the kcat/KM with KDM3A [1], in the assay with KDM4E [2] (KDM4E) and in the assay with KDM4E [2] (setting [9]) were 126.5 × 10^−6, 8.59e-05 µM⁻¹ s⁻¹ and 85.9 × 10^−6, respectively.

As for “STGGKAP-Rme-KQLATKA [H3 (10–24) R17me, 'natural' histone H3 peptide monomethylated at R17]”, the “observed arginine demethylation activity” value is listed as “−” on KDM6B; “−” on KDM3A [3]; “−” on KDM5C [4] (KDM5C 2 μM, 2OG 100 μM, ascorbate 100 μM, Fe(II) 10 μM, 50 mM HEPES pH 7.5, −14 Da shift); “−” at KDM4E [5] (KDM4E 2 μM, 2OG 200 μM, ascorbate 100 μM, Fe(II) 10 μM, 50 mM HEPES pH 7.5, −14 Da shift).

On to “A-Kme3-TKQTARKSTGGKA [H3R2Kme3, histone H3 peptide with trimethyllysine substituted for R2]”, for which the “demethylation, in words” value is on record as “not observed to be a KDM substrate” at KDM5C [4], “no demethylation activity” at KDM5C [4] (listed as H3(1–15)R2Kme3), “not observed to be a KDM substrate” on KDM4E [5] and “no demethylation activity” at KDM4E [5] (listed as H3(1–15)R2Kme3).

Consider SG-Rme2a-GKGGKGLGKGGAK [H4R3me2a], for which the “demethylation, in words” value at KDM5C [4] and at KDM4E [5] was “low levels of demethylation” throughout.

For “ART-Kme3-QTARKSTGGKA [H3(1-15)K4me3, recognized histone H3 N-methylated-lysine peptide substrate for KDM5C, reference compound]”, at KDM5C [6], the kcat is on record as 67.1±10.3 × 10^−3 s^−1, the Km is 7.6 ± 2.9 µM and the kcat/KM is listed as 8,800 × 10^−6.

Turning to “ARTKQTAR-Rme2a-STGGKA (ARTKQTARRSTGGKA; asymmetric dimethylarginine at 9; C-terminal amide) [H3(1-15)K9Rme2a, histone H3 fragment with asymmetric dimethylarginine replacing methylated K9]”, the kcat with KDM3A [1] was 5.0±0.6 × 10^−3 s^−1; with KDM4E [2] (setting [7]), 4.6±0.7 × 10^−3 s^−1. The Km was found to be 11.6 ± 1.4 µM in the assay with KDM3A [1] and 66 ± 5 µM in the assay with KDM4E [2] (setting [8]). Also, the kcat/KM with KDM3A [1] was 430.7 × 10^−6; with KDM4E [2] (KDM4E), 7.04e-05 µM⁻¹ s⁻¹; with KDM4E [2] (setting [9]), 70.4 × 10^−6.

On to “ARTKQTAR-Rme-STGGKA (ARTKQTARRSTGGKA; monomethylarginine at 9; C-terminal amide) [H3(1-15)K9Rme, histone H3 fragment with monomethylarginine replacing methylated K9]”, for which the kcat in the assay with KDM3A [1] is 11.0±1.2 × 10^−3 s^−1; in the assay with KDM4E [2] (setting [7]), 2.7±0.2 × 10^−3 s^−1; in the assay with KDM4E [2] (KDM4E, FDH-coupled assay), 0.0027 ± 0.0002 s⁻¹. The Km with KDM3A [1] is 12.1 ± 3.1 µM; with KDM4E [2] (setting [8]) it was 169 ± 35.9 µM. Besides, the kcat/KM is 907.6 × 10^−6 in the assay with KDM3A [1] and 15.9 × 10^−6 in the assay with KDM4E [2] (setting [9]).

As to “ART-Rme2a-QTARKSTGGKA [H3(1-15)K4Rme2a, histone H3 fragment with asymmetric dimethylarginine replacing methylated K4]”, on KDM5C [6], the kcat was 41.2±3.5 × 10^−3 s^−1, the Km is 29 ± 0.5 µM and the kcat/KM is given as 1,420.0 × 10^−6.

Regarding “ART-Rme2s-QTARKSTGGKA [H3(1-15)K4Rme2s, histone H3 fragment with symmetric dimethylarginine replacing methylated K4]”, at KDM5C [6], the kcat is listed as 4.6±0.7 × 10^−3 s^−1, the Km turned out to be 21.1 ± 5.8 µM and the kcat/KM is reported as 219.0 × 10^−6.
